Consider five substances from PMC4808650.

Assay [1] addresses Chlamydomonas outer arm axonemal dynein, α and β HC complex from strain oda2-t-lc2-bccp (Chlamydomonas reinhardtii) (UniProt Q39565).
For assay [2] the target is unchanged. The source holds these as a separate data set.

Like-named read-outs stand apart in the source and are kept apart here.

Sequence of UniProt Q39565 (Q39565 whole entry, looked up, one chain of several): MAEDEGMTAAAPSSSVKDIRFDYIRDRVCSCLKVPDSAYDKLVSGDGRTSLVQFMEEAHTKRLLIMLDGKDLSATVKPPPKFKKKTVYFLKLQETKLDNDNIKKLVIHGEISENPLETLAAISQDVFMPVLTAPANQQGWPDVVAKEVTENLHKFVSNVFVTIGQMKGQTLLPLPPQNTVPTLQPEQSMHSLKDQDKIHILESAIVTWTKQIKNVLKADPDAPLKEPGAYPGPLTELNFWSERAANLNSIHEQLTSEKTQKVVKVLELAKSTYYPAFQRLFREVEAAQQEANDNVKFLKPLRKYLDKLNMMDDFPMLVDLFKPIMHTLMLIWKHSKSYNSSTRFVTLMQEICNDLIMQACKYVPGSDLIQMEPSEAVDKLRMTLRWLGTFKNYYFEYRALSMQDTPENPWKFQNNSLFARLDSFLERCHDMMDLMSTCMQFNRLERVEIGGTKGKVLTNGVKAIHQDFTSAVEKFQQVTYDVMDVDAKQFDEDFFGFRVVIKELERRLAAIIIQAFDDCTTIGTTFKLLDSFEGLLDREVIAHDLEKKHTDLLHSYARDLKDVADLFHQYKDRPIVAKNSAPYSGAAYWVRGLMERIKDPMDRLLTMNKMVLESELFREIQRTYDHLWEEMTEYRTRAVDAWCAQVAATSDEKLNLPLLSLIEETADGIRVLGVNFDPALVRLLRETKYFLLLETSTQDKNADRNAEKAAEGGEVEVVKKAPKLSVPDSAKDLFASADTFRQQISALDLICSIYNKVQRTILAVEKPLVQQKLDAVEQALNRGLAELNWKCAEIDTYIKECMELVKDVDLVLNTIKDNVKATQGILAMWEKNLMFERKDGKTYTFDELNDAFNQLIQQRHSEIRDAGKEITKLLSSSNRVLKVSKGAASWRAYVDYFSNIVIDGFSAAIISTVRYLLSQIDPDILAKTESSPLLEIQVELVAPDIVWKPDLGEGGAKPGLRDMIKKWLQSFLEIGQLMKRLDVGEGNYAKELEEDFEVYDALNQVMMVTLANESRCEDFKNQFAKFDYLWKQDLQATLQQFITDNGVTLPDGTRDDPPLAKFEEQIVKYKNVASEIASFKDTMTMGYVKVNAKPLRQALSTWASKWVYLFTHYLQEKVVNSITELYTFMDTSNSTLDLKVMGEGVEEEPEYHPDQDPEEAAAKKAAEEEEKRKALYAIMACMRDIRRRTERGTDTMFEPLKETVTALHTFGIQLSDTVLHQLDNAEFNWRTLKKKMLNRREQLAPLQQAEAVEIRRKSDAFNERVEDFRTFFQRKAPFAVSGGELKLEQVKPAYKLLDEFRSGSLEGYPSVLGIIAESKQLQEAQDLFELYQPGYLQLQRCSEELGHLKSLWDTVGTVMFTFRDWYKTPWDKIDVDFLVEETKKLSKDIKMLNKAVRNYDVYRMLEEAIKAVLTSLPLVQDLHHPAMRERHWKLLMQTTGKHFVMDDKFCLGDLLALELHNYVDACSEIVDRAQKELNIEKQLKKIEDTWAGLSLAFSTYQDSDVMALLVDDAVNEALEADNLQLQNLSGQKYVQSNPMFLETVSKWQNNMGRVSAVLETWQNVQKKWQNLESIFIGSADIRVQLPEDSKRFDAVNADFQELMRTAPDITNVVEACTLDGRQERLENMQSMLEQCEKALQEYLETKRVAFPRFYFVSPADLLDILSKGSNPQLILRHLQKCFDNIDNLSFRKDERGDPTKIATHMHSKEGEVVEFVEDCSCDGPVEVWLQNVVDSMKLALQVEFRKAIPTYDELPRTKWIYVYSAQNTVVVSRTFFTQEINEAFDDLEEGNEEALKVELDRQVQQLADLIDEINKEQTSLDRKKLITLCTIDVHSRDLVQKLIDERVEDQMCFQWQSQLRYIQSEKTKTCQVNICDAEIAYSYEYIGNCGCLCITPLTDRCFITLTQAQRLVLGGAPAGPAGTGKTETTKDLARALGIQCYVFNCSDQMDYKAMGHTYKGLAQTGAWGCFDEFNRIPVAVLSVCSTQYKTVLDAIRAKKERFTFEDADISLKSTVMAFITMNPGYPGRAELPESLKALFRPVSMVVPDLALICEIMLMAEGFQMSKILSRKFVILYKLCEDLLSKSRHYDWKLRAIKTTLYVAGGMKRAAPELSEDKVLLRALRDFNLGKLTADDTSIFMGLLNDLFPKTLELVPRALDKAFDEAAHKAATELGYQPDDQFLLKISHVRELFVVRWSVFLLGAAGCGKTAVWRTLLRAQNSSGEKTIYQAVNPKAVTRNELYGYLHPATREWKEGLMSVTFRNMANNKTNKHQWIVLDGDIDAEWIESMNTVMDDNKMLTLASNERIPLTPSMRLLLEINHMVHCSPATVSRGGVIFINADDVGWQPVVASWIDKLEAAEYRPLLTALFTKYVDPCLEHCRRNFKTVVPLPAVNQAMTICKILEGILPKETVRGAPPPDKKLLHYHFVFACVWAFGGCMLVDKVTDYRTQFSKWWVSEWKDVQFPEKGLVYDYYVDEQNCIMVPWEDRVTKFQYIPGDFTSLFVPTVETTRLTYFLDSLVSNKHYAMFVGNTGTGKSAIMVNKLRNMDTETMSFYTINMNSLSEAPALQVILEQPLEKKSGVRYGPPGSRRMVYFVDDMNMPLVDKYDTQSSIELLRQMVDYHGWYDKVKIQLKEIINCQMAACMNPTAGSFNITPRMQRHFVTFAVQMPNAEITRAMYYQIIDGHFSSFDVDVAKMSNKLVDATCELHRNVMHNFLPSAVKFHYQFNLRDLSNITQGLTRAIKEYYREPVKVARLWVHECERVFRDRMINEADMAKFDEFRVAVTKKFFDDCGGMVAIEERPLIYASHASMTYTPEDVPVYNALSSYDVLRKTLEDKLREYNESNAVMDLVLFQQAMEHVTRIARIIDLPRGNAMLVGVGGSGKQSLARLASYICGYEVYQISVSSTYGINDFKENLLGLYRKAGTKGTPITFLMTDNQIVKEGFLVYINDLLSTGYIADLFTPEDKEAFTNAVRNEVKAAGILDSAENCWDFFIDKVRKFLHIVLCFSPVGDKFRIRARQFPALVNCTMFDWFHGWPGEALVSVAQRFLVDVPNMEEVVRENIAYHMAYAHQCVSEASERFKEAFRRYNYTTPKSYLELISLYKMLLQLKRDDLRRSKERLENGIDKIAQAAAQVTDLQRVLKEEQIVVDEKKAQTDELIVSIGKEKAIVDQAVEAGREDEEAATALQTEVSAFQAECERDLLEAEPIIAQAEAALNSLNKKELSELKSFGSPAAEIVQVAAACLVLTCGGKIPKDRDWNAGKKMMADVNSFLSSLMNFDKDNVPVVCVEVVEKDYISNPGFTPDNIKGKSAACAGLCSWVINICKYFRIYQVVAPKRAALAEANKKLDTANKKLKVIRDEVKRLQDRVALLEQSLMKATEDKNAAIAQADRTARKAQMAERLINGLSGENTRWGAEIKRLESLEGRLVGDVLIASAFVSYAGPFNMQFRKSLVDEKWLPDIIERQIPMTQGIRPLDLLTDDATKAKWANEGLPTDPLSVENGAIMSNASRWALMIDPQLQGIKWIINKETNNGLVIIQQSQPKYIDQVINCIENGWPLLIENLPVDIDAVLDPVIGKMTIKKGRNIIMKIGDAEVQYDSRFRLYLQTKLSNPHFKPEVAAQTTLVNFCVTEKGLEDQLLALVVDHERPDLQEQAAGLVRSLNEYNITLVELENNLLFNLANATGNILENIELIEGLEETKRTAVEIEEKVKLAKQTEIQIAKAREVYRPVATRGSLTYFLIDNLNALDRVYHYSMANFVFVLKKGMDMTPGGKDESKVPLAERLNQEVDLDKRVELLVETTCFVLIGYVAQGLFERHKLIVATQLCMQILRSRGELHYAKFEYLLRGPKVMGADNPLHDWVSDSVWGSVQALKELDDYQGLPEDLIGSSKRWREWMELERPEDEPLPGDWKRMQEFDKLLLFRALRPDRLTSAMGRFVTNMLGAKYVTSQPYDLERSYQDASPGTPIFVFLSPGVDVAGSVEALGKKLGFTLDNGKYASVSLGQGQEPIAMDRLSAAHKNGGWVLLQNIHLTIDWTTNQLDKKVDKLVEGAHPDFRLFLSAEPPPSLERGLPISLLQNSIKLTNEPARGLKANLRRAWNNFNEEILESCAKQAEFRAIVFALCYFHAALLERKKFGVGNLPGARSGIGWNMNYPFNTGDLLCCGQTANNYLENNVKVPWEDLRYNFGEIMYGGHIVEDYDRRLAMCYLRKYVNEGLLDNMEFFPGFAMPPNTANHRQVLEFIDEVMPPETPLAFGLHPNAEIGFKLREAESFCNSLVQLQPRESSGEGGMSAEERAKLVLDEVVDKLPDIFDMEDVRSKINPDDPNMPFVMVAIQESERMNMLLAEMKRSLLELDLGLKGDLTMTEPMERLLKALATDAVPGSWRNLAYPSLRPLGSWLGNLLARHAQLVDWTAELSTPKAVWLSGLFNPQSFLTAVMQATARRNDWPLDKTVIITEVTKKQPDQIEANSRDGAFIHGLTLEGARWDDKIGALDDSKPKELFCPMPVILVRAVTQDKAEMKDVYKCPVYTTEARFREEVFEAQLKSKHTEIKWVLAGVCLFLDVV

Regarding “αs-βs-tubulin porcine microtubules (200 μg/mL subtilisin) (complex)”, in assay [1], the vmax of microtubule gliding on dynein-coated slides (fit to Eq. 1) is 2.27 μm/s.

With “Chlamydomonas axonemal microtubules, untreated (complex)”, in assay [2], the L0 of microtubule gliding (microtubule length at vmax/2) amounted to 0.43 μm and the vmax of microtubule gliding on dynein-coated slides (fit to Eq. 1) was determined as 2.09 μm/s.

In assay [2], “Chlamydomonas axonemal microtubules from SIRT2-deacetylated tubulin (complex)” registered an L0 of microtubule gliding (microtubule length at vmax/2) of 0.39 μm and a vmax of microtubule gliding on dynein-coated slides (fit to Eq. 1) of 1.66 μm/s.

The substance “porcine brain microtubules, untreated (α-β-tubulin microtubules) (from UniProt P02550 1-451; P02554 1-445) (complex)” had a vmax of microtubule gliding on dynein-coated slides (fit to Eq. 1) in assay [1] of 1.7 μm/s.

Substance “α-βs-tubulin porcine microtubules (10 μg/mL subtilisin) (from UniProt P02550 1-451) (complex)” registered a vmax of microtubule gliding on dynein-coated slides (fit to Eq. 1) in assay [1] of 1.93 μm/s.
